Square brackets hold non-standard residues; d marks the D form. Ends that are not written are not given here. pY = N[C@@H](Cc1ccc(OP(=O)(O)O)cc1)C(=O)O
Columns and labels:
[1] = molecular target: T1, Csk L-SH2 domain (A73–A178), reduced form (human, UniProt P41240 73-178); test: other fluorescence titration; intrinsic tryptophan fluorescence of L-SH2 (typically 5 μmol/L) titrated with Cbp peptide; 25 °C, 3 mL of 50 mmol/L Tris-HCl pH 7.5; excitation 288 nm, emission 320 nm; conditions: both partners purified
T1 construct: C-terminal Src kinase (Csk), human, SH2 domain with part of the SH3-SH2 linker, residues A73-A178; C122 and C164 as free thiols; Cloned into pTWIN1 as described in Liu et al. 2009; 15N/13C-labelled for the NMR experiments; PDB 3EAC is the oxidized form of the same construct; also called reduced SH2; reduced L-SH2; source: E. coli BL21 (DE3) RIL, purified (chitin beads, intein cleaved with 50 …)
T1 sequence (looked up): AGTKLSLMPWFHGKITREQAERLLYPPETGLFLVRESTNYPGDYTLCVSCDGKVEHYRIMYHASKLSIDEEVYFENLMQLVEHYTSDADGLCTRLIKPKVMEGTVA

[2] = molecular target: T2, Csk L-SH2 domain (A73–A178), oxidized form (human, UniProt P41240 73-178, disulfide bond C122–C164); test: as above; conditions: both partners purified
T2 construct: C-terminal Src kinase (Csk), human, SH2 domain with part of the SH3-SH2 linker, residues A73-A178; intramolecular disulfide bond between C122 and C164; Same polypeptide as m1, differing only in the C122–C164 disulfide bond; also called oxidized SH2; oxidized L-SH2; source: E. coli BL21 (DE3) RIL, purified (chitin beads, intein cleaved with DTT, Mono Q); oxidized by exposure to air for about a …
T2 sequence (looked up): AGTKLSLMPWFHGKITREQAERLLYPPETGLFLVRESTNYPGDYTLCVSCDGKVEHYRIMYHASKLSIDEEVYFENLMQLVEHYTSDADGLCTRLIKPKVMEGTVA

B1: Cbp phosphopeptide ISAMpYSSVNK (peptide)
peptide: ISAM[pY]SSVNK
notes: also called Cbp peptide; Cbp-phosphorylated peptide; source: synthetic peptide (GenScript, solid-phase synthesis)
- Kd [1]: 520 ± 50 nM
- Kd [2]: 990 ± 80 nM

Reference: paper PMC5071372, “Combining biophysical methods to analyze the disulfide bond in SH2 domain of C-terminal Src kinase” (Biophysics Reports, 2016)
